Reference: US9403882B2, “Sulfation of Wnt pathway proteins” (priority 2010, dated 2016)
No end group written: not given here. *: point of attachment. sulfate = O=S(=O)(O)*

T1: sclerostin-LRP binding (Homo sapiens, UniProt O75197)
T1 construct: expresses LRP5 extracellular domains 1 and 2 fused to alkaline phosphatase; made in house; host or cells: LRP5R1/2-AP from transfected 293T cells (conditioned medium)
T1 sequence (O75197 32-641 limits assumed): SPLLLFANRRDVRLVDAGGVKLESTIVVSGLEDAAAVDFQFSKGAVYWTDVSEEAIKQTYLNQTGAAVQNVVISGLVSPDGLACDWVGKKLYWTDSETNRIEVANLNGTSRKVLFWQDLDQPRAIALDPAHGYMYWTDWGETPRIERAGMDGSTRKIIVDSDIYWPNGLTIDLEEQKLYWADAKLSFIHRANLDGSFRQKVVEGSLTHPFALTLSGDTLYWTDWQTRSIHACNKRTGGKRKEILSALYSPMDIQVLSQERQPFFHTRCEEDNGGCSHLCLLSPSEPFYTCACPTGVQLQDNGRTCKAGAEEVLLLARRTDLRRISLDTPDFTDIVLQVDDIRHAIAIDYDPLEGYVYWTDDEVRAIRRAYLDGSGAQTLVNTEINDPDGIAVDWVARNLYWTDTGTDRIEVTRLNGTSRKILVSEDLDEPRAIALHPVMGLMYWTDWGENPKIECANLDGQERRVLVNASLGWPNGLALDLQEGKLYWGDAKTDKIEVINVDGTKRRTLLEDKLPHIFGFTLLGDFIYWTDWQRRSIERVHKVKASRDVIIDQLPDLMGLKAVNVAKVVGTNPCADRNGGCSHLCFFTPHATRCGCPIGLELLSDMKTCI

T2: LRP5 extracellular domains 1 and 2 fused to alkaline phosphatase (Homo sapiens, UniProt O75197)
T2 construct: expresses LRP5 extracellular domains 1 and 2 fused to alkaline phosphatase; made in house; host or cells: 293T cells, transfected; concentrated conditioned medium
T2 sequence (O75197 32-641 limits assumed): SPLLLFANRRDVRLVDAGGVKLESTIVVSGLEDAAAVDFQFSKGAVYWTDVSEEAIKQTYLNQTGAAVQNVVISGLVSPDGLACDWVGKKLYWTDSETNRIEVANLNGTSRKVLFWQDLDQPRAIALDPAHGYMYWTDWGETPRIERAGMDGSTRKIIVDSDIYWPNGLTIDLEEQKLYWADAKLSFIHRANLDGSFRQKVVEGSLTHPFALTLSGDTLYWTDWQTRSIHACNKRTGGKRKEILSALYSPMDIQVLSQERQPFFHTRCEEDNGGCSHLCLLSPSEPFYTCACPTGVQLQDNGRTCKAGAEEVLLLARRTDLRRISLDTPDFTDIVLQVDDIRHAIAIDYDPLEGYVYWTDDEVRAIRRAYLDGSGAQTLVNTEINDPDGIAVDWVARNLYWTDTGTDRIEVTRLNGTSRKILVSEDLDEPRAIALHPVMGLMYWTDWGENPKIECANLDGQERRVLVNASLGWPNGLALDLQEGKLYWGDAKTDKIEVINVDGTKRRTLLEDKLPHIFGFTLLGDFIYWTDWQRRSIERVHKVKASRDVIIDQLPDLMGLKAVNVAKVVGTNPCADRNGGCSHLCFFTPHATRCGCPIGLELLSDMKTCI


Tests used:
[1] = target: T1, sclerostin-LRP binding; test: Sclerostin binding to LRP in the presence of peptides; details: 667 μM peptide concentration; FIG. 12
Method: Various amounts of unmodified sclerostin or the in vitro treated sclerostin from Example 1 were diluted into 80 μl of TBST buffer and added to individual wells of 96 well plates. After overnight incubation, unbound proteins were removed after which point the coated plates were blocked with 3% nonfat milk in PBS. The plates were than decanted and 0.5×LRP5R1/2AP conditioned medium was added to the plates. After 2.5 hours, the conditioned medium was removed and the 96 well plates were washed five times for three minutes with TBST. The alkaline phosphatase activity in each well was then determined using the Tropix luminescence assay kit (Invitrogen, Carlsbad, Calif.).
Sclerostin binding to LRP in the presence or absence of the sulfated or unsulfated peptides, at 667 μM peptide concentration, was tested using the binding assay essentially as described in Example 3.

[2] = test system: Wnt induced alkaline phosphatase activity; test: Wnt 3a induced alkaline phosphatase activity in 10T1/2 cells; type: cell-based; details: 24 hours, vs untreated sclerostin, highest level of sclerostin input, FIG. 3
Method: Growing cultures of 10T1/2 cells were washed with PBS and trypsinized for 5 minutes. Cells were resuspended at a concentration of 6×10^5 cells/ml and 10 μl were seeded into individual wells of a Costar 96 well plate (Corning, Inc.). Wnt 3a and either the untreated sclerostin or the sclerostin from Example 1 were added and the plates were incubated at 37° C. for 24 hours. 50 μl of universal lysis buffer (from the Luciferase Reporter Gene Assay, Roche Applied Science, Indianapolis, Ind.) was added to each well at ambient temperature for 5 minutes. Detection of alkaline phosphatase was measured by the addition of 50 μl of ready-to-use CPSD with Sapphire Enhancer (Applied Biosystems) followed by an incubation at ambient temperature for 25 minutes.

[3] = target: T2, LRP5 extracellular domains 1 and 2 fused to alkaline phosphatase; test: Binding of AlkPhos-LRP5 to plate-coated sclerostin; details: TPST-1-treated vs untreated recombinant sclerostin; FIG. 2
[4] = test system: Wnt signaling; test: Cell-based luciferase assay using Wnt reporter cells (Dkk1 inhibition of Wnt signaling); details: Dkk1 from insect cells untreated (sulfated) vs chlorate treated (unsulfated); FIG. 10
Method: These four Dkk1 preparations were used at three concentrations in a cell-based luciferase assay using the Wnt reporter cells essentially as described in U.S. Patent Publication 2006/0198791 to determine the effect of sulfation on the ability of Dkk1 to inhibit Wnt signaling. Briefly, the cells were seeded in 96-well microtiter plates at 2×10^5 cells per well, in 50 μl assay medium. After incubation at 37° C. in a 5% CO2 atmosphere overnight, 50 μl DMEM was added to each well. Wnt3a was then added, to a final concentration of 300 ng/ml, followed by addition of either buffer, sulfated Dkk1 or unsulfated Dkk1, where Dkk1 was added to a final concentration of 0.4, 0.133 or 0.044 μg/ml. The plates were then incubated at 37° C. in a 5% CO2 atmosphere for 6 h. Luciferase substrate was then added and chemiluminescence was measured. Each treatment was performed in duplicate.

| Molecule | inhibition of sclerostin-LRP binding [1] | further results |
| --- | --- | --- |
| H-C-R-S-A-K-A-N-Q-A-E-L-E-N-A-Y-OH (H-HCRSAKANQAELENAY-OH) [PRN8831] | inhibition of sclerostin-LRP binding |  |
| PRN8830: sulfated P43, sequence of sclerostin amino acids 37-52 where 43 is the sulfation site (HPELGEY(sulfate)PEPPPELEC-NH2) | inhibition of sclerostin-LRP binding |  |
| sclerostin treated in vitro with TPST: human sclerostin (R&D Systems) sulfated in vitro with human TPST1 and PAPS |  | blockage of Wnt induced alkaline phosphatase activity [2]: significantly (P=0.006) more efficient blockage of Wnt induced alkaline phosphate activity |
| H-P-E-L-G-E-Y-P-E-P-P-P-E-L-E-C-NH2 (H-HPELGEYPEPPPELEC-NH2) [PRN8829] | inhibition of sclerostin-LRP binding |  |
| mouse versions of sclerostin: mouse sclerostin, TPST-treated compared with untreated |  | amount of AlkPhos-LRP5 bound to the plates [3]: essentially similar results |
| sulfated Dkk1: Dkk1 prepared in insect cells untreated with chlorate (protein, UniProt O94907 32-266, looked up, sulfated, insect cell-expressed, Dkk1 prepared in insect cells untreated with chlorate) Dickkopf-related protein 1: TLNSVLNSNAIKNLPPPLGGAAGHPGSAVSAAPGILYPGGNKYQTIDNYQPYPCAEDEECGTDEYCASPTRGGDAGVQICLACRKRRKRCMRHAMCCPGNYCKNGICVSSDQNHFRGEIEETITESFGNDHSTLDGYSRRTTLSSKMYHTKGQEGSVCLRSSDCASGLCCARHFWSKICKPVLKEGQVCTKHRRKGSHGLEIFQRCYCGEGLSCRIQKDHHQASNSSRLHTCQRH |  | inhibition of Wnt activity [4]: greater inhibition of Wnt activity |
